Results as given in patent US20050176933A1.

Target: GST-HAb18GE (a fusion of the extracellular domain of hepatoma-associated antigen HAb18G with GST) (human) (UniProt P35613)
Experiment: indirect ELISA on coated GST-HAb18GE; positive control; mean ± S

Chain of UniProt P35613 (P35613 138-325): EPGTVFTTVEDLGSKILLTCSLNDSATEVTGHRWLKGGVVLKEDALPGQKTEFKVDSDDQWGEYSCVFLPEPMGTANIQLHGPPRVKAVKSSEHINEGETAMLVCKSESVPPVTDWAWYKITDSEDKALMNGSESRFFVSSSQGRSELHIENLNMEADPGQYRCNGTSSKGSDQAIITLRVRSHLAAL

B1: murine anti-human hepatoma McAb HAb18 (antibody, mouse IgG1, V domains shown)
VH: EVKLEESGGGLVQPGGSMKLSCVASGFTFSDAWMDWVRQSPEKGLEWVAEIRSKANNHAPYYTESVKGRFTISRDDSKSIIYLQMNNLRAEDTGIYYCTRDSTATHWGQGTLVTVSS
VL: SIVMTQTPTFLVVSAGDRVTITCKASQSVINDVAWYQQKPGQSPKLLIFYASNRNTGVPDRFTGSGYGTDFTFTISTVQAEDLAVYFCQQDYSPPFTFGSGTKLEIK
modifications: HRP-labelled in the competitive ELISAs
A450 (Indirect ELISA): 1.02 A450
